Experimental data reported in US20190185537A1 (AstraZeneca / MedImmune, published 2019).
One block for each binder: values may come before it. Numbered stars: 1 amine (or outer) side, 2 acyl side, 3 side chain; on linkers, the order of the positions; unused ones are H or OH. Side chains are listed from the residue outwards. Ends that are not written are not given here. * marks the point of attachment. γGlu = O=C(O)[C@H](CCC(=O)[*:2])N[*:1]; Palmitoyl = CCCCCCCCCCCCCCCC(=O)*

Key:
Experiment in all cases: cell-based or functional assay
[1] = molecular target: T1, human glucose-dependent insulinotropic peptide (gastric inhibitory polypeptide) receptor (human) (UniProt P48546)
T1 sequence (looked up): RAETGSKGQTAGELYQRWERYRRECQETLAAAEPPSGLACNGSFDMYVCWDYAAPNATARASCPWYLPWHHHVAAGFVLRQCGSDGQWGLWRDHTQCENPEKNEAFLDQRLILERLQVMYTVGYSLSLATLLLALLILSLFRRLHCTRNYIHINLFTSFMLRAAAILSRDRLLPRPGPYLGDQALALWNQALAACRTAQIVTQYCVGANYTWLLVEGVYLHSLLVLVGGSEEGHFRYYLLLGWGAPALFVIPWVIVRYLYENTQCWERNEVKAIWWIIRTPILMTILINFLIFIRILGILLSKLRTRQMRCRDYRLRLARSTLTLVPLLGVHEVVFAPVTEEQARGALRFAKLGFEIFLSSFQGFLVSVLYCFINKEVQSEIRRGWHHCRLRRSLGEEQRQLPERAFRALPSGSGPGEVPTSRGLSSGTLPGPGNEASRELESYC

[2] = molecular target: human GLP-1 receptor (human, UniProt P43220 24-463)
human GLP-1 receptor, sequence (P43220 24-463): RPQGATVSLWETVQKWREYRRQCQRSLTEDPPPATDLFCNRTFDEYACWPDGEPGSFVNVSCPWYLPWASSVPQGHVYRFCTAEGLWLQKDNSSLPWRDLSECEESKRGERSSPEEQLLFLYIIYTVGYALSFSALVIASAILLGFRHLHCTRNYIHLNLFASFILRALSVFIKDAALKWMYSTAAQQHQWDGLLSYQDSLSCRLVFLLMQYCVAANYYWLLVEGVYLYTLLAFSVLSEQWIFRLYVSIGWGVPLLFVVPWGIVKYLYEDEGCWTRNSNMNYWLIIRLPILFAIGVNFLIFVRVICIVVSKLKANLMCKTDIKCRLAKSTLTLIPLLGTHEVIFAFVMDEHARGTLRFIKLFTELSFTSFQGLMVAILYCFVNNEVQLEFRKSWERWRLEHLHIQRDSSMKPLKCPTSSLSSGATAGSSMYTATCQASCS

[3] = molecular target: human glucagon receptor (human, UniProt P47871 26-477)
human glucagon receptor, sequence (P47871 26-477): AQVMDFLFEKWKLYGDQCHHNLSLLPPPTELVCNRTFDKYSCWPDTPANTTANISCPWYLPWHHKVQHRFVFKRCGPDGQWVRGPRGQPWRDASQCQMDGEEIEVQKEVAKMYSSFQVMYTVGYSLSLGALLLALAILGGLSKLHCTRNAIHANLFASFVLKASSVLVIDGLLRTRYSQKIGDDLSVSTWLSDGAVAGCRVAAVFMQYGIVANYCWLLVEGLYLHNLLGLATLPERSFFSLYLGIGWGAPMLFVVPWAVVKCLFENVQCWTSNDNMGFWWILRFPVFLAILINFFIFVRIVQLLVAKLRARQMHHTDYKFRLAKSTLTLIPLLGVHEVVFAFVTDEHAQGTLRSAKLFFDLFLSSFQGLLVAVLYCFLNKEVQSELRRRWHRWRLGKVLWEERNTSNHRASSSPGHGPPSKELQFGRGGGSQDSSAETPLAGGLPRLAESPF

B2: g336 (peptide)
peptide: HSQGTFTSDYSKYLDSK([γGlu-γGlu-Palmitoyl])RAQDFVQWLVAGG-NH2
modifications: N-terminus assumed
SMILES: CCCCCCCCCCCCCCCC(=O)N[C@@H](CCC(=O)N[C@@H](CCC(=O)NCCCC[C@H](NC(=O)[C@H](CO)NC(=O)[C@H](CC(=O)O)NC(=O)[C@H](CC(C)C)NC(=O)[C@H](Cc1ccc(O)cc1)NC(=O)[C@H](CCCCN)NC(=O)[C@H](CO)NC(=O)[C@H](Cc1ccc(O)cc1)NC(=O)[C@H](CC(=O)O)NC(=O)[C@H](CO)NC(=O)[C@@H](NC(=O)[C@H](Cc1ccccc1)NC(=O)[C@@H](NC(=O)CNC(=O)[C@H](CCC(N)=O)NC(=O)[C@H](CO)NC(=O)[C@@H](N)Cc1c[nH]cn1)[C@@H](C)O)[C@@H](C)O)C(=O)N[C@@H](CCCNC(=N)N)C(=O)N[C@@H](C)C(=O)N[C@@H](CCC(N)=O)C(=O)N[C@@H](CC(=O)O)C(=O)N[C@@H](Cc1ccccc1)C(=O)N[C@H](C(=O)N[C@@H](CCC(N)=O)C(=O)N[C@@H](Cc1c[nH]c2ccccc12)C(=O)N[C@@H](CC(C)C)C(=O)N[C@H](C(=O)N[C@@H](C)C(=O)NCC(=O)NCC(N)=O)C(C)C)C(C)C)C(=O)O)C(=O)O
cAMP EC50 (assay 1) [1]: 19.6 nM
cAMP EC50 (assay 1) [2]: 0.0366 nM
cAMP EC50 (assay 1) [3]: 0.00177 nM

Binder: HXQGTFTSDYSKYLDSKRAQDFVQWLVAGG (Aib at 2 (written X); K(gE-palm) at 17; C-terminal amide) [g384]
cAMP EC50 (assay 1) [1]: 17 nM
cAMP EC50 (assay 1) [2]: 0.0272 nM
cAMP EC50 (assay 1) [3]: 0.0429 nM

B3: g381 (peptide)
peptide: HSEGTFTSDYSKYLDSK([γGlu-Palmitoyl])RAQDFVQWLVAGG-NH2
modifications: N-terminus assumed
SMILES: CCCCCCCCCCCCCCCC(=O)N[C@@H](CCC(=O)NCCCC[C@H](NC(=O)[C@H](CO)NC(=O)[C@H](CC(=O)O)NC(=O)[C@H](CC(C)C)NC(=O)[C@H](Cc1ccc(O)cc1)NC(=O)[C@H](CCCCN)NC(=O)[C@H](CO)NC(=O)[C@H](Cc1ccc(O)cc1)NC(=O)[C@H](CC(=O)O)NC(=O)[C@H](CO)NC(=O)[C@@H](NC(=O)[C@H](Cc1ccccc1)NC(=O)[C@@H](NC(=O)CNC(=O)[C@H](CCC(=O)O)NC(=O)[C@H](CO)NC(=O)[C@@H](N)Cc1c[nH]cn1)[C@@H](C)O)[C@@H](C)O)C(=O)N[C@@H](CCCNC(=N)N)C(=O)N[C@@H](C)C(=O)N[C@@H](CCC(N)=O)C(=O)N[C@@H](CC(=O)O)C(=O)N[C@@H](Cc1ccccc1)C(=O)N[C@H](C(=O)N[C@@H](CCC(N)=O)C(=O)N[C@@H](Cc1c[nH]c2ccccc12)C(=O)N[C@@H](CC(C)C)C(=O)N[C@H](C(=O)N[C@@H](C)C(=O)NCC(=O)NCC(N)=O)C(C)C)C(C)C)C(=O)O
cAMP EC50 (assay 1) [1]: 545 nM
cAMP EC50 (assay 1) [2]: 0.0908 nM
cAMP EC50 (assay 1) [3]: 1.93 nM

B7: g335 (peptide)
peptide: HSQGTFTSDYSKYLDSK([γGlu-Palmitoyl])RAQDFVQWLVAGG-NH2
modifications: N-terminus assumed
SMILES: CCCCCCCCCCCCCCCC(=O)N[C@@H](CCC(=O)NCCCC[C@H](NC(=O)[C@H](CO)NC(=O)[C@H](CC(=O)O)NC(=O)[C@H](CC(C)C)NC(=O)[C@H](Cc1ccc(O)cc1)NC(=O)[C@H](CCCCN)NC(=O)[C@H](CO)NC(=O)[C@H](Cc1ccc(O)cc1)NC(=O)[C@H](CC(=O)O)NC(=O)[C@H](CO)NC(=O)[C@@H](NC(=O)[C@H](Cc1ccccc1)NC(=O)[C@@H](NC(=O)CNC(=O)[C@H](CCC(N)=O)NC(=O)[C@H](CO)NC(=O)[C@@H](N)Cc1c[nH]cn1)[C@@H](C)O)[C@@H](C)O)C(=O)N[C@@H](CCCNC(=N)N)C(=O)N[C@@H](C)C(=O)N[C@@H](CCC(N)=O)C(=O)N[C@@H](CC(=O)O)C(=O)N[C@@H](Cc1ccccc1)C(=O)N[C@H](C(=O)N[C@@H](CCC(N)=O)C(=O)N[C@@H](Cc1c[nH]c2ccccc12)C(=O)N[C@@H](CC(C)C)C(=O)N[C@H](C(=O)N[C@@H](C)C(=O)NCC(=O)NCC(N)=O)C(C)C)C(C)C)C(=O)O
cAMP EC50 (assay 1) [1]: 582 nM
cAMP EC50 (assay 1) [2]: 0.0733 nM

Now from value to binder:

cAMP EC50 (assay 1) [1]: 123 nM
cAMP EC50 (assay 1) [2]: 0.106 nM
cAMP EC50 (assay 1) [3]: 4.52 nM
B1: g678 (peptide)
peptide: HGQGTFTSDYSKYLDSK([γGlu-Palmitoyl])RAEDFVQWLVAGG-NH2
modifications: N-terminus assumed
SMILES: CCCCCCCCCCCCCCCC(=O)N[C@@H](CCC(=O)NCCCC[C@H](NC(=O)[C@H](CO)NC(=O)[C@H](CC(=O)O)NC(=O)[C@H](CC(C)C)NC(=O)[C@H](Cc1ccc(O)cc1)NC(=O)[C@H](CCCCN)NC(=O)[C@H](CO)NC(=O)[C@H](Cc1ccc(O)cc1)NC(=O)[C@H](CC(=O)O)NC(=O)[C@H](CO)NC(=O)[C@@H](NC(=O)[C@H](Cc1ccccc1)NC(=O)[C@@H](NC(=O)CNC(=O)[C@H](CCC(N)=O)NC(=O)CNC(=O)[C@@H](N)Cc1c[nH]cn1)[C@@H](C)O)[C@@H](C)O)C(=O)N[C@@H](CCCNC(=N)N)C(=O)N[C@@H](C)C(=O)N[C@@H](CCC(=O)O)C(=O)N[C@@H](CC(=O)O)C(=O)N[C@@H](Cc1ccccc1)C(=O)N[C@H](C(=O)N[C@@H](CCC(N)=O)C(=O)N[C@@H](Cc1c[nH]c2ccccc12)C(=O)N[C@@H](CC(C)C)C(=O)N[C@H](C(=O)N[C@@H](C)C(=O)NCC(=O)NCC(N)=O)C(C)C)C(C)C)C(=O)O

cAMP EC50 (assay 1) [1]: 117 nM
cAMP EC50 (assay 1) [2]: 0.135 nM
cAMP EC50 (assay 1) [3]: 0.189 nM
B4: g679 (peptide)
peptide: HGQGTFTSDYSKYLDSK([γGlu-Palmitoyl])RAQDFVEWLVAGG-NH2
modifications: N-terminus assumed
SMILES: CCCCCCCCCCCCCCCC(=O)N[C@@H](CCC(=O)NCCCC[C@H](NC(=O)[C@H](CO)NC(=O)[C@H](CC(=O)O)NC(=O)[C@H](CC(C)C)NC(=O)[C@H](Cc1ccc(O)cc1)NC(=O)[C@H](CCCCN)NC(=O)[C@H](CO)NC(=O)[C@H](Cc1ccc(O)cc1)NC(=O)[C@H](CC(=O)O)NC(=O)[C@H](CO)NC(=O)[C@@H](NC(=O)[C@H](Cc1ccccc1)NC(=O)[C@@H](NC(=O)CNC(=O)[C@H](CCC(N)=O)NC(=O)CNC(=O)[C@@H](N)Cc1c[nH]cn1)[C@@H](C)O)[C@@H](C)O)C(=O)N[C@@H](CCCNC(=N)N)C(=O)N[C@@H](C)C(=O)N[C@@H](CCC(N)=O)C(=O)N[C@@H](CC(=O)O)C(=O)N[C@@H](Cc1ccccc1)C(=O)N[C@H](C(=O)N[C@@H](CCC(=O)O)C(=O)N[C@@H](Cc1c[nH]c2ccccc12)C(=O)N[C@@H](CC(C)C)C(=O)N[C@H](C(=O)N[C@@H](C)C(=O)NCC(=O)NCC(N)=O)C(C)C)C(C)C)C(=O)O

cAMP EC50 (assay 1) [2]: 3.35 nM
cAMP EC50 (assay 1) [3]: 1.49 nM
B5: g702 (peptide)
peptide: HSQGTFTSDYSK([γGlu-Palmitoyl])YLDSERAQDFVQWLVAGG-NH2
modifications: N-terminus assumed
SMILES: CCCCCCCCCCCCCCCC(=O)N[C@@H](CCC(=O)NCCCC[C@H](NC(=O)[C@H](CO)NC(=O)[C@H](Cc1ccc(O)cc1)NC(=O)[C@H](CC(=O)O)NC(=O)[C@H](CO)NC(=O)[C@@H](NC(=O)[C@H](Cc1ccccc1)NC(=O)[C@@H](NC(=O)CNC(=O)[C@H](CCC(N)=O)NC(=O)[C@H](CO)NC(=O)[C@@H](N)Cc1c[nH]cn1)[C@@H](C)O)[C@@H](C)O)C(=O)N[C@@H](Cc1ccc(O)cc1)C(=O)N[C@@H](CC(C)C)C(=O)N[C@@H](CC(=O)O)C(=O)N[C@@H](CO)C(=O)N[C@@H](CCC(=O)O)C(=O)N[C@@H](CCCNC(=N)N)C(=O)N[C@@H](C)C(=O)N[C@@H](CCC(N)=O)C(=O)N[C@@H](CC(=O)O)C(=O)N[C@@H](Cc1ccccc1)C(=O)N[C@H](C(=O)N[C@@H](CCC(N)=O)C(=O)N[C@@H](Cc1c[nH]c2ccccc12)C(=O)N[C@@H](CC(C)C)C(=O)N[C@H](C(=O)N[C@@H](C)C(=O)NCC(=O)NCC(N)=O)C(C)C)C(C)C)C(=O)O

cAMP EC50 (assay 1) [1]: 14.9 nM
cAMP EC50 (assay 1) [2]: 0.0203 nM
cAMP EC50 (assay 1) [3]: 0.008 nM
B6: g670 (peptide)
peptide: HSQGTFTSDYSKYK([γGlu-Palmitoyl])DSRSAQDFVQWLVAGG-NH2
modifications: N-terminus assumed
SMILES: CCCCCCCCCCCCCCCC(=O)N[C@@H](CCC(=O)NCCCC[C@H](NC(=O)[C@H](Cc1ccc(O)cc1)NC(=O)[C@H](CCCCN)NC(=O)[C@H](CO)NC(=O)[C@H](Cc1ccc(O)cc1)NC(=O)[C@H](CC(=O)O)NC(=O)[C@H](CO)NC(=O)[C@@H](NC(=O)[C@H](Cc1ccccc1)NC(=O)[C@@H](NC(=O)CNC(=O)[C@H](CCC(N)=O)NC(=O)[C@H](CO)NC(=O)[C@@H](N)Cc1c[nH]cn1)[C@@H](C)O)[C@@H](C)O)C(=O)N[C@@H](CC(=O)O)C(=O)N[C@@H](CO)C(=O)N[C@@H](CCCNC(=N)N)C(=O)N[C@@H](CO)C(=O)N[C@@H](C)C(=O)N[C@@H](CCC(N)=O)C(=O)N[C@@H](CC(=O)O)C(=O)N[C@@H](Cc1ccccc1)C(=O)N[C@H](C(=O)N[C@@H](CCC(N)=O)C(=O)N[C@@H](Cc1c[nH]c2ccccc12)C(=O)N[C@@H](CC(C)C)C(=O)N[C@H](C(=O)N[C@@H](C)C(=O)NCC(=O)NCC(N)=O)C(C)C)C(C)C)C(=O)O
